How the values were obtained:
Test in all cases: ELISA
[1] = biological target: Fc-fused ECD of EGFR (Homo sapiens (assumed), UniProt P00533)
[2] = biological target: Fc-fused ECD of HER3 (Homo sapiens (assumed), UniProt P21860)
[3] = biological target: Fc-fused ECD of HER4 (Homo sapiens (assumed), UniProt Q15303)
[4] = biological target: Fc-fused ECD of PDGFRβ (Homo sapiens (assumed), UniProt P09619)
[5] = biological target: Fc-fused ECD of VEGFR2 (Homo sapiens (assumed), UniProt P35968)
[6] = biological target: Fc-fused ECD of IGF-IR (Homo sapiens (assumed), UniProt P08069)
Chain of Fc-fused ECD of IGF-IR (P08069 741-935): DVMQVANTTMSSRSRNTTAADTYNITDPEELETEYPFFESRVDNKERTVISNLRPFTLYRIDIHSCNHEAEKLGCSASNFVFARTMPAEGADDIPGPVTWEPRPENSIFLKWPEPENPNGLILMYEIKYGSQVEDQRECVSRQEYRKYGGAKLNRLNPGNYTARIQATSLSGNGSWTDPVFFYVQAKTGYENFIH

[7] = biological target: Fc-fused ECD of FGFR3 (IIIc) (Homo sapiens (assumed), UniProt P22607)
Chain of Fc-fused ECD of FGFR3 (IIIc) (P22607 23-375): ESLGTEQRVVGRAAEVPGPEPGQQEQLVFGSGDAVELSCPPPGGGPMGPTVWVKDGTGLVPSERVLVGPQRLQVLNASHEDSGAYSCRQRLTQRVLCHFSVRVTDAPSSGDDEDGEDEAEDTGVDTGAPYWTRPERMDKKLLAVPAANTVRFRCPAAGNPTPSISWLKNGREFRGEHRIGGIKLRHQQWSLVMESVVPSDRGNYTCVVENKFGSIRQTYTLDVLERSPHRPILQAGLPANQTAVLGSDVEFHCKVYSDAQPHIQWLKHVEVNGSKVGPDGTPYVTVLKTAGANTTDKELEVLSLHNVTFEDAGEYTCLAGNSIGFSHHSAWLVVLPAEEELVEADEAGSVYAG

[8] = biological target: HGFR/c-Met ECD-Fc (Homo sapiens (assumed), UniProt P08581)
Chain of HGFR/c-Met ECD-Fc (P08581 25-932): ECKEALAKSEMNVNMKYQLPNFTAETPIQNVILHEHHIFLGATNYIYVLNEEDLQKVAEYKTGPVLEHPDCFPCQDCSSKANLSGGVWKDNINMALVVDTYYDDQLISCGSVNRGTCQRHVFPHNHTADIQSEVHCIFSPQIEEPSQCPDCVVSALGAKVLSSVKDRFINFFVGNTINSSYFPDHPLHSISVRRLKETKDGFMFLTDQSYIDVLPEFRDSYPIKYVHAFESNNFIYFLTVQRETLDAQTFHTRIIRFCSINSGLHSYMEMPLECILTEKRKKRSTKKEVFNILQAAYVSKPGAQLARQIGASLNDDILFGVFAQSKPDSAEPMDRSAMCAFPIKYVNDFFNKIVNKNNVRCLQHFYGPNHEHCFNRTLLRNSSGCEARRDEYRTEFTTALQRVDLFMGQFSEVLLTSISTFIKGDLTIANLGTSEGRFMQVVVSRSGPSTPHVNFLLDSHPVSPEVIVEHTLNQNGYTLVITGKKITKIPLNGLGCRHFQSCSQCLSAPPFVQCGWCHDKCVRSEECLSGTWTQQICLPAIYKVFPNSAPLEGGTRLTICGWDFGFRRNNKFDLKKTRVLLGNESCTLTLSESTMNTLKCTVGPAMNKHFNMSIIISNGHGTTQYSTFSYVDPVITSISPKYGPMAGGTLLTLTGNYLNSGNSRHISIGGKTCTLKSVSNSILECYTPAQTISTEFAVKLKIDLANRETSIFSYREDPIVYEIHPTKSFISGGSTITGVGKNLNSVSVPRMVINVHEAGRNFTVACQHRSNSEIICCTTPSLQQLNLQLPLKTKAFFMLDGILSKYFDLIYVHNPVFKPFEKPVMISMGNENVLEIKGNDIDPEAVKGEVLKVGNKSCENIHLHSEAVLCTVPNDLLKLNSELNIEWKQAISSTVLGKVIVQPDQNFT

Chain of Fc-fused ECD of VEGFR2 (P35968 20-764): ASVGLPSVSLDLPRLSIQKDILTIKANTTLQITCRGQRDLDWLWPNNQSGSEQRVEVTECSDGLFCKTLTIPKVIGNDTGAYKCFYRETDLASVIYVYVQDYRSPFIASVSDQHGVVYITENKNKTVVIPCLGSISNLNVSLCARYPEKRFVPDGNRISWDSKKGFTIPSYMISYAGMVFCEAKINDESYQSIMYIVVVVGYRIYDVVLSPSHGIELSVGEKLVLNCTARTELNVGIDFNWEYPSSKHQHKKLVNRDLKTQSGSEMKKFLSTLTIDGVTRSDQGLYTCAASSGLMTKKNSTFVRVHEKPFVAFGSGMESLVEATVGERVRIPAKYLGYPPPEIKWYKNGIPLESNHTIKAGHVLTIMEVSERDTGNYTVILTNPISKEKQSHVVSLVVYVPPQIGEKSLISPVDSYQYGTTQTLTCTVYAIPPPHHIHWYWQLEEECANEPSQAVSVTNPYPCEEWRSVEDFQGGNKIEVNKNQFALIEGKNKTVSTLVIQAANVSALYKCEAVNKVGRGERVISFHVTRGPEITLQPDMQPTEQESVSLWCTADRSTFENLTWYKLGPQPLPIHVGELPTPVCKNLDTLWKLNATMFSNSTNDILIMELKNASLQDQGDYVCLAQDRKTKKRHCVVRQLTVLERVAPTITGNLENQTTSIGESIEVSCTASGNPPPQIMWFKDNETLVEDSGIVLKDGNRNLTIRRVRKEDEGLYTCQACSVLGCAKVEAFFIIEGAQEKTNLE
Chain of Fc-fused ECD of HER3 (P21860 20-643): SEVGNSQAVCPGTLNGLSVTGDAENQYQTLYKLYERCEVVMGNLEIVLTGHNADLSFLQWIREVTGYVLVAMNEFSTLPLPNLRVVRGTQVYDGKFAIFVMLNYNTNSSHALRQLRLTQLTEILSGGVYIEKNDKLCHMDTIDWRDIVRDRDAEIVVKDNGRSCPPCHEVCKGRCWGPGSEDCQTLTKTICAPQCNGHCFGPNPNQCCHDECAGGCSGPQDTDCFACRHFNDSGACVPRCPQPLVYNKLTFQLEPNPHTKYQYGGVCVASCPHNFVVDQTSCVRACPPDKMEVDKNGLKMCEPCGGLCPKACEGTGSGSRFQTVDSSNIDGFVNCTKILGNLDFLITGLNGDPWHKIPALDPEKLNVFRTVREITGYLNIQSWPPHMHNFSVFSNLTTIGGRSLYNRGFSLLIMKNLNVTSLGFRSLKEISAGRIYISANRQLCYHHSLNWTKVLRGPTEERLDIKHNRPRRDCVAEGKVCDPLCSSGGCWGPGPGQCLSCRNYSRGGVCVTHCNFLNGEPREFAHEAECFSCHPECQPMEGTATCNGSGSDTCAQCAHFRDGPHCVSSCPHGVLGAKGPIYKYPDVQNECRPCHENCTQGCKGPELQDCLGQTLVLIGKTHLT
Chain of Fc-fused ECD of PDGFRβ (P09619 33-532): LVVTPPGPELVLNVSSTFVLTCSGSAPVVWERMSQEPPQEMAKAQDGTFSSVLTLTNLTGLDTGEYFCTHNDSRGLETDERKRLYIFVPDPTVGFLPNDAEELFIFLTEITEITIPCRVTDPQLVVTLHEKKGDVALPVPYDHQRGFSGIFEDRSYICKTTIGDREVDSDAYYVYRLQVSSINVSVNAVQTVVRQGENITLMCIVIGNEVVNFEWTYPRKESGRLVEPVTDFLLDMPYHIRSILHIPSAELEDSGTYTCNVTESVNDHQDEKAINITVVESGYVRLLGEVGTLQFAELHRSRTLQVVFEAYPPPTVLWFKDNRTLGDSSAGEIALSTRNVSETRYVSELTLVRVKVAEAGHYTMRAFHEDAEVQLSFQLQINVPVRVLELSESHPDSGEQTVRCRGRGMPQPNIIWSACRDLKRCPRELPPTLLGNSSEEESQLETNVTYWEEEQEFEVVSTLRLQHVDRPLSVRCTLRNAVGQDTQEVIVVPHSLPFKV
Chain of Fc-fused ECD of HER4 (Q15303 26-651): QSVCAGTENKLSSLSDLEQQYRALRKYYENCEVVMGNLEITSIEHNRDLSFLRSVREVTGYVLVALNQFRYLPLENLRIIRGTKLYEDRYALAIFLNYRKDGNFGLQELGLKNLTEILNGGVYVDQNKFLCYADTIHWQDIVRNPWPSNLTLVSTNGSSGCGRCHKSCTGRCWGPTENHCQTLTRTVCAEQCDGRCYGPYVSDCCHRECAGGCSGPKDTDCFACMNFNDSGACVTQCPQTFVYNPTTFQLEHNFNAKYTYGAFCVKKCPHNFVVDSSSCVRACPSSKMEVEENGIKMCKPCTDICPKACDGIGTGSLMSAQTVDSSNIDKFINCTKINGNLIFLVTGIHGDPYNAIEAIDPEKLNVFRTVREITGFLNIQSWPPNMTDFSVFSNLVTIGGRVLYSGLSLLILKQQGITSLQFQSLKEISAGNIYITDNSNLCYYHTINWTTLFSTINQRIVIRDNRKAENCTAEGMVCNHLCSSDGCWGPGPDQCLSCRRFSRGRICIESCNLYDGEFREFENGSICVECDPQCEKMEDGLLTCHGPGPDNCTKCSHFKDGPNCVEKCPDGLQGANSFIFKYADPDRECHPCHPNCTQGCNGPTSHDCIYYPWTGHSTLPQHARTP

binding result [1]: no binding (tested: 30 nM) | binding result [2]: no binding (tested: 30 nM) | binding result [3]: no binding (tested: 30 nM) | binding result [4]: no binding (tested: 30 nM) | binding result [5]: no binding (tested: 30 nM) | binding result [6]: no binding (tested: 30 nM) | binding result [7]: no binding (tested: 30 nM) | binding result [8]: no binding (tested: 30 nM)
B1: AH06, variant of hu4D5 from library LN02, IgG format (antibody, V domains shown)
VH: EVQLVESGGGLVQPGGSLRLSCAASGFNIKDTYIHWVRQAPGKGLEWVARIYPTNGYTRYADSVKGRFTISADTSKNTAYLQMNSLRAEDTAVYYCSRWGGWGFYAFALWGQGTLVTVSS
VL: not shown

Reference: PMC4794604 (Molecules and Cells, 2016)
